Patent US20030207791A1, “Materials and methods relating to the treatment of leukaemias” (priority 2000, published 2003)

T1: GST-NCoR (Mus musculus, UniProt Q60974)
T1 construct: made in house
T1 sequence (Q60974 1782-2453): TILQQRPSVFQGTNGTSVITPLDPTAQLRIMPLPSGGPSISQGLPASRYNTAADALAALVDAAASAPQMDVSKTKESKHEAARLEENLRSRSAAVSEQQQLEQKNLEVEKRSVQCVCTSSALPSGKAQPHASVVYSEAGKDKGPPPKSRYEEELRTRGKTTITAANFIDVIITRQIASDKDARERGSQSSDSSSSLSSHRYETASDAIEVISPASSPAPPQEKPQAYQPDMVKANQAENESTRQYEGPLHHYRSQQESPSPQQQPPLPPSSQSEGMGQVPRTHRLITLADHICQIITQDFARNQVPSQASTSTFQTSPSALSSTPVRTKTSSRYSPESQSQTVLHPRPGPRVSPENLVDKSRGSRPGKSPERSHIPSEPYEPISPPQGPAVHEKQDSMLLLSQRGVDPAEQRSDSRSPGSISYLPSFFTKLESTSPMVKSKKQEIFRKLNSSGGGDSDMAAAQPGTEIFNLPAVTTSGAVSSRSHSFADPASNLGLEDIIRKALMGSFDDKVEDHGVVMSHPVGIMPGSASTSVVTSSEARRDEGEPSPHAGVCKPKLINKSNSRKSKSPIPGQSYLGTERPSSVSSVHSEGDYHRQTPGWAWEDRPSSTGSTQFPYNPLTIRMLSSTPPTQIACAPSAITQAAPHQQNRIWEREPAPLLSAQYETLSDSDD

B1: PML-RAR: leukaemia-associated chimeric transcription factor, fusion of PML and RAR (protein)
chain: MEPAPARSPRPQQDPARPQEPTMPPPETPSEGRQPSPSPSPTERAPASEEEFQFLRCQQCQAEAKCPKLLPCLHTLCSGCLEASGMQCPICQAPWPLGADTPALDNVFFESLQRRLSVYRQIVDAQAVCTRCKESADFWCFECEQLLCAKCFEAHQWFLKHEARPLAELRNQSVREFLDGTRKTNNIFCSNPNHRTPTLTSIYCRGCSKPLCCSCALLDSSHSELKCDISAEIQQRQEELDAMTQALQEQDSAFGAVHAQMHAAVGQLGRARAETEELIRERVRQVVAHVRAQERELLEAVDARYQRDYEEMASRLGRLDAVLQRIRTGSALVQRMKCYASDQEVLDMHGFLRQALCRLRQEEPQSLQAAVRTDGFDEFKVRLQDLSSCITQGKDAAVSKKASPEAASTPRDPIDVDLPEEAERVKAQVQALGLAEAQPMAVVQSVPGAHPVPVYAFSIKGPSYGEDVSNTTTAQKRKCSQTQCPRKVIKMESEEGKEARLARSSPEQPRPSTSKAVSPPHLDGPPSPRSPVIGSEVFLPNSNHVASGAGEAIETQSSSSEEIVPSPPSPPPLPRIYKPCFVCQDKSSGYHYGVSACEGCKGFFRRSIQKNMVYTCHRDKNCIINKVTRNRCQYCRLQKCFEVGMSKESVRNDRNKKKKEVPKPECSESYTLTPEVGELIEKVRKAHQETFPALCQLGKYTTNNSSEQRVSLDIDLWDKFSELSTKCIIKTVEFAKQLPGFTTLTIADQITLLKAACLDILILRICTRYTPEQDTMTFSDGLTLNRTQMHNAGFGPLTDLVFAFANQLLPLEMDDAETGLLSAICLICGDRQDLEQPDRVDMLQEPLLEALKVYVRKRRPSRPHMFPKMLMKITDLRSISAKGAERVITLKMEIPGSMPPLIQEMLENSEGLDTLSGQPGGGGRDGGGLAPPPGSCSPSLSPSSNRSSPATHSP
B2: p53-RAR: RAR fused C-terminally to the tetramerization domain present in p53 (protein)
chain: GEYFTLQIRGRERFEMFRELNEALELKDAQAGMASNSSSCPTPGGGHLNGYPVPPYAFFFPPMLGGLSPPGALTTLQHQLPVSGYSTPSPATIETQSSSSEEIVPSPPSPPPLPRIYKPCFVCQDKSSGYHYGVSACEGCKGFFRRSIQKNMVYTCHRDKNCIINKVTRNRCQYCRLQKCFEVGMSKESVRNDRNKKKKEVPKPECSESYTLTPEVGELIEKVRKAHQETFPALCQLGKYTTNNSSEQRVSLDIDLWDKFSELSTKCIIKTVEFAKQLPGFTTLTIADQITLLKAACLDILILRICTRYTPEQDTMTFSDGLTLNRTQMHNAGFGPLTDLVFAFANQLLPLEMDDAETGLLSAICLICGDRQDLEQPDRVDMLQEPLLEALKVYVRKRRPSRPHMFPKMLMKITDLRSISAKGAERVITLKMEIPGSMPPLIQEMLENSEGLDTLSGQPGGGGRDGGGLAPPPGSCSPSLSPSSNRSSPATHSP

Columns and labels:
[1] = system: RARE-G5-TATA reporter (GAL4-VP16 driven transcription); experiment: Transcriptional repression of GAL4-VP16 activation, RARE-G5-TATA reporter, transfected HeLa cells; format: cell-based
Method: FIG. 2. Role of the coiled coil of PML in the altered transcriptional properties of PML-RAR (A): Transcriptional repression by RAR and fusion proteins. Hela cells were co-transfected with the RARE-G5-TATA reporter in the absence (C) or presence of increasing amounts (50, 100, 250, 1000 ng) of the indicated expression vectors and then harvested 48 hours after transfection. Levels of expression of RAR and fusion proteins after transfection are shown in (C). (B) RARE and NCoR dependent transcriptional repression by RAR and fusion proteins. Hela cells were co-transfected with the RARE-G5-TATA or the G5-TATA, reporters and 1 μg of control expression vector (C), RAR (R), PML-RAR (P/R) and their respective AHT derivatives, as indicated. (D) RA sensitivity of RAR and fusion proteins. Cells were co-transfected with 500 ng of the indicated expression vectors. 24 hours after transfection, RA was added at the following concentrations: 1, 10, 100 nM, 1, 10 μM, and cells were harvested after additional 24 hours.
To test this hypothesis, the inventors devised an artificial, reporter system to measure transcriptional repression by RAR and chimeric proteins. The RARE-G5-TATA reporter construct has five GAL4 response elements fused to a minimal promoter region: upstream of the GAL4 sites, a RA responsive element (RARE) allows binding of RAR (or fusion proteins). […] RAR over-expression led to decrease of GAL4-VP16 activation, with 30-40% repression observed with the maximal amount of co-transfected RAR expression vector (1 μg, FIG. 2A), while it exerted no effect on the GAL4-VP16-mediated activation of a cognate promoter lacking the RARE (FIG. 2B). A RAR construct carrying the AHT mutation, which abrogates NCoR binding (Horlein et al., 1995), was unable to prevent activation of the RARE-G5-TATA promoter by GAL4-VP16 (FIG. 2B).
Next, the inventors tested the transcriptional regulatory functions of PML-RAR (or derivatives). […] At the maximal concentration tested (1 μg), the inventors observed 80-90% repression with PML-RAR and 30-40% with RAR (FIG. 2A).
Transient transfection of HeLa, NIH 3T3, SAOS and C33A cells was performed by calcium phosphate as described (Lillie and Green, 1989; Minucci et al., 1994). p53-/- MEFs were transiently transfected by lipofection as described (Pearson et al., 2000). Light units were normalized to expression of a co-transfected β-galactosidase expression plasmid. Results are presented as the mean+standard deviations of at least three independent experiments.

[2] = target: T1, GST-NCoR; experiment: GST-NCoR pull-down assay with in vitro translated 35S labelled proteins; format: binding; conditions: increasing amounts of GST-NCoR
Method: FIG. 1. Enhanced recruitment of NCoR by PML-RAR is due to the coiled coil region of PML. Increasing amounts of GST -NCoR (from 150 ng to 10 μg) coupled to agarose beads were incubated with the indicated in vitro translated, ^35-S labelled proteins. On the left, a schematic representation of the in vitro translated products, with the tripartite motif of PML highlighted (R, RING finger; B, B boxes; CC, coiled coil). The input lanes are loaded with the same amounts used in the pull-down experiments.
Recruitment of the NCoR-HDAC complex is crucial for the transforming potential of PML-RAR. At low concentrations of RA (1-100 nM), the stability of the PML-RAR-NCoR complex is higher than that of the RAR-NCoR complex (Grignani et al., 1998; He et al., 1998; Lin et al., 1998). […] Pull-down assays were performed by incubation of in vitro translated, ^35S labelled PML-RAR or RAR with GST-NCoR coupled to agarose beads.
GST-NCoR (1782-2453) or GST-NCoR (RDIII) purification and in vitro interaction experiments were performed as described, incubating the indicated amounts of GST-NCoR attached to a constant amount of glutathione-agarose beads in the presence of the appropriate ^35-S labelled, in vitro translated proteins(Gelmetti et al., 1998; Grignani et al., 1998; Zamir et al., 1996). The input lanes represent 100% of the total. Coimmunoprecipitation experiments were performed as described(Gelmetti et al., 1998), using extracts from transiently transfected COS-1 cells, or in vitro translated products.

Row | Molecule | repression of GAL4-VP16 activation ([1]; maximal amount of expression vector, 1 μg) | binding to GST-NCoR [2] | capacity to repress GAL4-VP16 driven transcription [1]
1 | B1 | 80-90% | bound specifically to the beads even at the lowest amounts of GST-NCoR tested | –
2 | B2 | – | bound NCoR even at the lowest amounts of GST-NCoR tested | as strongly as PML-RAR
